The text below walks through data of article PMC12583610, “Allosteric control of the bacterial ClpC/ClpP protease and its hijacking by antibacterial peptides” (The EMBO Journal, 2025).

Assay [1] concerns the target Staphylococcus aureus ClpC wild-type (Staphylococcus aureus) (UniProt Q2G0P5). Briefly: mass photometry.
Assay [2] shares this target. The assay is described as follows: cross-linking.
The target of assay [3] is Staphylococcus aureus ClpC-F436A (Staphylococcus aureus) (UniProt Q2G0P5). The assay is described as follows: cross-linking.
Assay [4] has the same target. The assay is described as follows: dynamic light scattering.
In a further assay the target is Mtb ClpC1 (Mycobacterium tuberculosis, UniProt P9WPC9).
Assay [5] deals with T1, Staphylococcus aureus ClpP (Staphylococcus aureus), Q2G036.
T1 chain: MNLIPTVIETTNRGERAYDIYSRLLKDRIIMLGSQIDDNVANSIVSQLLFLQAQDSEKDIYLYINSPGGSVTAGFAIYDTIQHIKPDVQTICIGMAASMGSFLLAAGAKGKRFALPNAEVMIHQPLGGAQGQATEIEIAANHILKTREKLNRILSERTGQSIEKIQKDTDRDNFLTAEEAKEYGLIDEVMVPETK
Briefly: negative stain EM. The note with it: remark: other sources report otherwise.

For orientation: stoichiometry N means a count of units in the complex or per binding partner. Turning to “Staphylococcus aureus ClpC wild-type (from UniProt Q2G0P5) (natural protein)”, the stoichiometry N is 2 in assay [1] and 6 in assay [2].

“Staphylococcus aureus ClpC-F436A (from UniProt Q2G0P5) (natural protein)”: the stoichiometry N in assay [3] and in assay [4] was 6 in each case.

For the molecule `Nc1ncnc2c1ncn2[C@@H]1O[C@H](COP(=O)(O)OP(=O)(O)OP(=O)(O)O)[C@@H](O)[C@H]1O` [ATP], the “coupled PK/LDH NADH ATPase assay” value at Mtb ClpC1 is “ATPase activities of Mtb ClpC1-WT and indicated mutants were determined”.

B1: Staphylococcus aureus ClpP, Q2G036 1-195 (enzyme)
chain: T1 chain
B1 had a stoichiometry N in assay [5] of 14.
